# Data from the domain aggregation screens of Martell et al. (2025).
# Assay: soluble fraction after stress (log2 fold change); higher = more stays soluble; pooled small domains, quantitative proteomics
# Details: stress: 50 degC
# Outline: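 Each library was heated to 50°C as a stress step. The libraries, made up of small protein domains, were pooled and analysed at high throughput by quantitative proteomics. The reported value is the base-two logarithm of the fold change in each protein's soluble amount after stress, taken as a measure of aggregation propensity. The higher the value, the more protein stays in solution.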
row,Sequence,soluble fraction (log2)
1,HMNVEVDSIGDDDFLVKVSAGTSTEHRVTLTDAYWEQIWSSSLPKKEIISLSFAFLLEREPNSSIMRT,0.0604
2,HMNENNFIVAMRERLAQFIETSGTSQSRIAKELGVSKSTVSLFLGGTYGGNNQELARNLEQLLSMGAARR,-0.96
3,HMVKRAYGEYVNVKLTDADLSKLKADFPADWQERIERLSTYMASTGKTYKNHLATIRNWARRDAERVSA,0.22
4,HMGITPSIEMILEYFAFKESSETEANKFFNYYSSIGWLVGGKTKMKDWKASARNWIMNQNKFQ,-3.97
5,HMPLLSEWDAALEELWAKLGDVPMDPETERMDAPFLGFPAGTPREDIWHWFDERHSKGVAHLLYG,-2.37
6,HMKVYPIMEAIANNNIELVKLLLEYHADLNIKDSNGNTPLALAKETGAKEVEDLLLQWMKQHT,-0.543
7,HMGKVLIYKPNMSVSDVAIRLGISNAEIIKRLMGLGVMTSINQTIDRDTIELVAMDLGFSIEN,-0.656
8,HMPHFFISTSDVNQDIITVSDKENFHHIARVLRSKVGETLLLVDENRTQYKVVIQNIDSKSITTKVVETLK,-0.138
9,HMGIVAPGTLKHLHAVGNSYYPDWETKRHELVTAVTKGRTSSSKELYEAEANRLITRIEELLMTAAQSV,-0.0132
10,HMDGNVPSVEGKPLSGAKYILETYGYKTGTVTEVNSEDVPAGIVISQNPARGTTLANGGSVNLQVSLG,0.321
11,HMDLKSLEFAIVENVQRHDLNPLEEAQGYKRLIDEFSYDQDKVSKFIGKSRSYITNSLRLLNLPLEVLEF,-0.049
12,HMIDEKVQAADKSIEIGNLSPLKGLVTDDEMHELEKLFEKVMALKDFEVNDVGAGRKYIEAYVSFFKFAEG,-0.661
13,HMVKNVVIPDVSNKAPVDASNQLTDLGFEVVTEYKYIASDTIEEGKVVKTSPEIGSKRKYGQKITLYISSG,-0.56
14,HMTDTSFPRLGAPEEELLSFLAKWEIDAEDAHYTKFSLYYQSTGKMMRDWKATWRAWKERQSELNAQR,-1.68
15,HMSVRPMVEILRVVGSPSPVWVTWARNRAAWLYETGIRPQQRLRMADGTEVLIRLVGEFAHILVVGG,-0.31
16,HMDPPISNDARNAINAKLMKFSELHPNEMKKLVEAYKKEFKVSKISPITLARQGEFLSHAISKIDDT,0.0248
17,HMESRRVTLLLPYDKAGIADTLRREAAVLSLEYGEDGVTVEAVVKPELWGLVREYVQNDNPK,0.166
18,HMEESEMIAFATVAHRIVGKPVEAVMRSYRNRDNIPADIAAIVSSKFTFSVTMAEASYRNPKKSYQVNSII,-0.00943
19,HMDYGSISFINWSIEVLSVIKTRLDRGDKIIDEVSGEKYTASSFEKFVRKNFSSYIFSQVYAEDHKK,-2.55
20,HMYVQDPVDRLVLESALRLLREQEREIIFLHLVAGLKHREIAGLLHLPLSTVLSGYRRALTKMKSYLEE,-0.115
21,HMRADRLISMLMLLQARGKITAEELAVELGVSQRTIYRDIEALSFAGVPVYAERGPGGGIGLLEPY,-1.7
22,HMADGEWAEMQRQLTAAGLLVVGRAAQERIQRLSDISPLIEAAQRSNVVMLSERTVDEVLTLVPT,-0.18
23,HMVEFLMESTNGMYGIVKEGSSYYVQKGINESSLDYIGGMFMKDKNRFSSYSTALKRLELISGQET,-0.328
24,HMKVGEIIKAKREELKIPLVNFAKELDISQGYLSQIENGIKTNPNLDIILKIIHRLDIDLAMLL,-1.32
25,HMAPRASDALTERELDVLRVVADGASVAEAAEMLVVSRETVKKHLGNIYAKLGVHSKMQAVALLREEGV,-0.147

row,Sequence,soluble fraction (log2)
1,HMSETEEWTVEGGQAGDRIDRHVAAMLGDDVSRSQVQQWIRAGRVTVNGRAVKPSDTVEEGDRVAVDLPEP,0.0588
2,HMTYTPRAGSLASQVIGFFRHNPDEELLLDDITDKFDATRGNIHTLLAEAVRFKLLARYRNDDGDYVYKPG,-2.97
3,HMKIVPEPGTVLIREYQEERHEVTVTLDGAFDYKGTLYSSLSEIARLITGTRWSGPVFFGLRS,-0.4
4,HMNTNDFTIGTRVRTTKKGNGSSDGTSNTARSGIEGTITRIIPEAKYPYLVSTTVPMGWYKKDALEK,0.0875
5,HMLSDHGLNDRQIMVIAGLMNGGTVTVRSIESQYGVSLNTARADVKMLVDAGLLTETGREVNMKVYSWSGK,-2
6,HMDSDELEAFRLITSVNGVGPKLGIAILSEFTAEKLTVFIASGDAKALTAASGVGIKLAQRIVLELKDKVG,-0.199
7,HMLVYQRLDKDNFIFEGKTLLNDIYKILDIESNYFEAIRGEADSIAGLLLEIAKSIPTINTEF,-0.171
8,HMTTIHVDPEKISKIIGPGGKTIKKIVEETGAKIDIEEDGRVYIAAVNSEEAAKAIDMINGI,0.257
9,HMNQWQLLSEDGAILGTRVLYHPHETEQPFTRSLSGVKIPAHVQSVTIRAGDLVHGFGGREIQMQLPPIV,-0.0987
10,HMDLTKLFDHDSEYGKSYVFGKITDEMIARAEQTLGYRMPASYIELLKVQNGGMISDELDESWLTTIYGIG,-0.24
11,HMPDGTATATASVNVRSGASTLSPVLGVLRVGESIGVTGQANGGWVPVNYNGRAGYVYAAYLSFD,-0.161
12,HMHQALLEQSAEHAQQVKAYELLLTAERALDEENTEAFLSAMKSLKPLAENLDAKGKALYQELLPFVTEA,-0.0088
13,HMTTPAAISKIKKLEEAKRLLATTTYSMKEIAVKLKYKSHTHFGMDFKNNTGMTPAEYRKAIKAKREKQMN,-0.0571
14,HMRGLLSQREHDVLDLVARGFSYGEIARLRSISVSTVQTHIKNLYRKLAVSSRTEAVYEAKQMGI,-1.59
15,HMEELPVLHLKHVVVEGESLWKLAEQYLNDGTRWQEIYMLNRENISNPDLIREGQELNIQFLQGE,-0.574
16,HMTNELTEIFNSIRLTKKQKELLQSNYLSLRETYFLQGKTAFNLKFKNIAGLGKSTKKVLLEFFEESIE,-1.83
17,HMDEYGEVQALQRAGQTSEALARADRHIAAHPNDPQMRFVKANLLSAGGRAGEAETLLVQLTRD,-0.0234
18,HMSSEASALRGWLQTSQYQGSVTLFANALNVPLKTVEDWVYGRSKPSLQHWSQLYEATGLPEYQQ,-0.18
19,HMVVVMEKNASSAEIEQVQERLRQAGFKIHLSQGVERTIIGAIGDRSQVDLGFLEALPGVEKVVPIMK,0.0845
20,HMIGTPLSEWQKDAPEEITRDQIAELVILKFVTVEQLALASDAQLQRIGMGGVGLRERAKLYLNRK,-1.15
21,HMPTLSKVGSQGEEVRQIQTKLKNWGYLNDRVDGIYGPKTRDAVIWFQKKNGLVADGIAGPATLKAMGIFT,0.0925
22,HMPFNREYWIEQLLKEVGLMGTPYAELDKHEVELDSPTGRASGFKVNAKTYVDQQLLFIENEYNNQPE,-0.153
23,HMIEGSSDWKPNMILDDGGDLTKIIHEEYQDLLDDIRGLSEETTTGVLRLYEMEKENSLAVPAINVND,0.276
24,HMKFLHLADLHLGKRVNGFSMLEDQAYILRQILTILDDERPDGVLIAGDVYDKPVPPTEAVELLD,-0.604
25,HMNKFKVNERVRVIATGEIGIVKGREILPVEGSKRVNIEYLVKVGNGFSNWKAFSKKELEPVR,-1.18

row,Sequence,soluble fraction (log2)
1,HMPGVTTQLHRLNGTEETYIIKRGDGVLEIDGEKSELQLGDAIIIPAGASQKISNIGDEDLE,-0.346
2,HMTANTQVENIRLELQRYMDEHGISQVTVARGIGKTHPVISQFLNNKYPGDVEEVARAIESWLTKQHEKAA,-0.0876
3,HMEFPLSPHQYSVLRLMAQGLSNKQIAERLFLSENTVKGYVQEVLRRLGARNRLEAVMIANRRGWL,-0.112
4,HMDLSLQTFNELKTELTNNKITIDQFSEKINEFDITSDIFEISRELFLDDTLSLEDYLVVIENVLIN,-0.45
5,HMSEVPVLVAKTDIKELELIDDRKVTLINVPQKFKMPGSFNSPEEVYNTIAAVPIKEGEQITKPRVTWP,0.134
6,HMEPELSVDMKPLDGLLLAIKKELQAAQMYTRLARASADAEQKMVFEQLANMEKGHKARLEDIYT,-0.0279
7,HMSEQLKQIAERIKELRNIAGLGEEELAAKLDIPVDTYREYESGNVDIPVSFLYKISGMFNVELTAIL,0.0417
8,HMNQPRQRKVIFELIDERNALERVLMHFAHLEKQVEKIDERKYQVTLYYDKEDETEILIRVLSFG,-1.15
9,HMVAQQINDFRSERDASTGTLKRPLFDTLRDVISSRAQAYVSATGKPVTVEDLDRIYQAVEAEAKQAL,0.0781
10,HMGDLLTVDRVAATSGLGVDTIRYYQRLGLLDPPVRHGRRALYSTAHLDRLVEIRQLADEGFSLAQIATL,-1.08
11,HMGLNPSILVKLGNANIKTIDNLADLASDELKEILEDISITSKEADEIIMRARSSWFEEDDKKEDNI,0.0789
12,HMGTVISVDKARSIALAKVPGASANDIRIHLDRDDGRQIYEGEIYYNRMEYEFEIDASTGTIIEWSAEHW,-1.73
13,HMAFRLPNGYGTIRRLTGNRRKPYVALVNPTQVFDDEKGTSHYKYDLLGTFAEKIDAYNAVMQYHKSPGGL,-1.35
14,HMHLTRYQYKVETEQEAVGLKELSSVHDLQIKENEATFQADSDAIDEILKTLLLYGVKKLEATPPTLED,-0.0366
15,HMNLGDLYVIMEIAGQRDDVSARLMNREGQTFLVKTGTKLKSGDVVKEITPTYIKTDHDGEEAFLYF,-0.542
16,HMISRKIKELRLSHDLTQKDLADYLNLTPKMVSFYELGQRVPPSDIILKLAEKFHVSTDYLLGNEDRP,-0.0279
17,HMNSNLSLTSYEEKIFFLLEKEKNLDELILESSFKAGEILSILMDLEIKHAIVSIPGGKYRRK,-2.84
18,HMSVTYRYSYVYNGNTYSDGWSVRRAIENNENKRFGPEPSDLDHEAQKQARVTFWAEHGVEYKEQEVV,-0.879
19,HMRSFADEGTVEEWIKQAIRENEAAVADYRKGKETAVKFLMGQVMRLSKGEANPADLEDKIKAKLD,0.0903
20,HMGLKWVYYTNIEPDGNKINNQKLYDILKQKFVYPVIISRDELDSMELKDLTYDSYIDVEGRYFKPYNLD,-2.23
21,HMNGAAAEQARKQLMTALKASEFIAQDKLDEWLDALALPQEKRSAIIDAVDELDYEEAISELEN,-0.0176
22,HMEDEEILNEIRHTEQYVYYFGNYIMEHHVSRGLSKEKVIASLARELQIEIADIREDFDGMIEQIKTNILN,-0.163
23,HMFLTPLEETRLAIEEVVIAKNIAIDLFPRESAIRKQQHELIYHYHLKGLTVGTEKNKRLRIFPRGY,-0.000251
24,HMVDVNLLKYYVMESGKSLTDVAAAIGVTPATLHRKMSGESDFYRKEMQDIASYLGLDRDTIDRIFF,-1.01
25,HMFELTVGTPIRVIREPYFGKLGTVTELPAQLMVVESGTEVRVLKAKIEGEGEVLVPRANVEIIATG,-0.0828
